Data published in patent US20180051287.

How the values were obtained:
[1] = target: complement factor D (fD) (UniProt P00746); experiment: inhibition; conditions: non-specific control oligo
[2] = target: complement factor D (fD) (UniProt P00746); experiment: flow; conditions: 2'-F G, 2'-OMe A, C, U, apparent Kd of pool, SB1T, 37 C
[3] = test system: casein; experiment: FP filter; conditions: specificity control; 100 nM DNA, 20 uM casein
[4] = target: complement factor D (fD) (UniProt P00746); experiment: FP filter; conditions: 100 nM DNA, 5 uM fD

Sequence of complement factor D (fD) (P00746 26-253): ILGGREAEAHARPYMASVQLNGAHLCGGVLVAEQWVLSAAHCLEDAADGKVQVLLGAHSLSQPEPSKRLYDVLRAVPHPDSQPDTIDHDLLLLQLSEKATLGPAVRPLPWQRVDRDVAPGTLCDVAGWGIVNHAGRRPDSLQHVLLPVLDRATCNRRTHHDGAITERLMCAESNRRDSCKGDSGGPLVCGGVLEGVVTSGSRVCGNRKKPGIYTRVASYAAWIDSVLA

Row | Substance | binding signal [3] [% bound] | also measured
1 | C8 non-specific control oligo | – | IC50 ([1]; alternative-pathway hemolysis): > 160 nM; activity ([1]; fD esterase assay): 105 % activity
2 | GGGAGUGUGUACGAGGCAUUAGGCCGCCNNNNNNNNNNNNNNNNNNNNNNNNNNNNNNGGCGGCUUUGAUACUUGAUCGCCCUAGAAGC [N30S selection round 6 pool] | – | Kd [2]: 34.4 nM
3 | GGGAGUGUGUACGAGGCAUUAGGCCGCCNNNNNNNNNNNNNNNNNNNNNNNNNNNNNNGGCGGCUUUGAUACUUGAUCGCCCUAGAAGC [N30S selection round 7 pool] | – | Kd ([2]; competed by anti-fD Fab AFD): 45.1 nM
4 | GGGAGUGUGUACGAGGCAUUAGGCCGCCNNNNNNNNNNNNNNNNNNNNNNNNNNNNNNGGCGGCUUUGAUACUUGAUCGCCCUAGAAGC [N30S selection round 8 pool] | – | Kd ([2]; competed by anti-fD Fab AFD): 8.8 nM
5 | GTGACGACTGACATATCTGCAAAAGTTAGATTGACATGGTATGCACCGTCTGAGGTTGGTCGTAGTTGAGTCTGAGTGCT [Aptamer 12 (rank 9)] | 0.6 | –
6 | GTGACGACTGACATATCTGCCCTATAGGGGTGTGGGCGAGGGGTGGGTGGTAGGGCGGCTCGTAGTTGAGTCTGAGTGCT [Aptamer 10 (rank 7)] | 0.2 | –
7 | GTGACGACTGACATATCTGCGGCGGTTGGGGTCGAAGGGCGAGGGGTGGGAGGTCGCCGTAGTTGAGTCTGAGTGCT [Aptamer 7 (rank 4)] | 0.1 | –
8 | GTGACGACTGACATATCTGCGGGCGTCTGAGCGCATGGATGACCCACCGACAGATTGCGGCGTAGTTGAGTCTGAGTGCT [Aptamer 27 (rank 24)] | 0.6 | –
9 | GTGACGACTGACATATCTGCGTTTGGGGTTGGGGCCTGGGAGTTTGGGGAGCAGAAAGGACGTAGTTGAGTCTGAGTGCT [Aptamer 5 (rank 2)] | 0.5 | –
10 | GTGACGACTGACATATCTGCNNNNNNNNNNNNNNNNNNNNNNNNNNNNNNNNNNNNNNNNCGTAGTTGAGTCTGAGTGCT [DNA selection round 9 pool] | – | binding signal ([4]; round 9 pool): 14.6 % bound
11 | GTGACGACTGACATATCTGCNNNNNNNNNNNNNNNNNNNNNNNNNNNNNNNNNNNNNNNNCGTAGTTGAGTCTGAGTGCT [naive N40 DNA library] | 0.5 | binding signal ([4]; naive library background): 3.6 % bound; binding signal ([4]; round 0 library): 0.88 % bound
12 | GTGACGACTGACATATCTGCTATTTTGGGGCCTGGGTGTTGGGGATTGGGGACTATGTGTCGTAGTTGAGTCTGAGTGCT [Aptamer 8 (rank 5)] | 0.3 | –
13 | GTGACGACTGACATATCTGCTCCGAGGTTATTGGGGTTGGGGCCTGGGCGATTGGGGCCTCGTAGTTGAGTCTGAGTGCT [Aptamer 4 (rank 1)] | 0.5 | –
14 | GTGACGACTGACATATCTGCTGCTTCCAGCGGTCATGATATGCACTGTCTGAAGCTCGGTCGTAGTTGAGTCTGAGTGCT [Aptamer 15 (rank 12)] | 0.2 | –
